{
  "source": "patent US20200282100A1",
  "about": "“Hemostatic Dressings with Self-Assembling Peptide Hydrogels” (3-D Matrix, Ltd., priority 2016, published 2020)",
  "test": "Congo Red assay of gel formation of peptide solutions in PBS buffer (pH 7.4) with a hemostatic porous dressing",
  "format": "physicochemical",
  "conditions": "PBS pH 7.4, compared with pure RADA16 2.5%",
  "procedure": "A Congo Red assay was performed to assess gel formation of peptide solutions in a PBS buffer solution (pH 7.4) when used with a hemostatic porous dressing. RADA16 2.5% (PuraMatrix®) was plated on a glass slide and also on a hemostatic porous dressing on a glass slide. PuraMatrix® was spread on the surface of the hemostatic porous dressing using a stick. After 30 seconds, 1% Congo Red solution was added around and on top of the gel aliquots and then the excess Congo Red solution was wiped off prior to examination. RADA16 2.5% was also plated on an absorbable gelatin sponge (Surgifoam®, Ethicon) and on an absorbable oxidized regenerated cellulose woven dressing (Surgicel®, Ethicon). Visualization of gel formation determined the success or failure of gelation. […] Specifically, (1) and (2) show pure RADA16 2.5% (PuraMatrix®). In (3), (4), and (5), RADA16 2.5% is shown with absorbable gelatin sponge (Surgifoam®, Ethicon). In (6), (7), and (8), RADA16 2.5% is shown with absorbable oxidized regenerated cellulose woven dressing (Surgicel®, Ethicon).\nA Congo Red assay was performed to assess gel formation of peptide solutions in a PBS buffer solution (pH 7.4) when used with a hemostatic porous dressing.\nIEIK13 1.3% (pH 3.0) was plated on a glass slide and on a hemostatic porous dressing on a glass slide. […] Visualization of gel formation determined the success or failure of gelation. […]",
  "data": [
    {"sequence": "RADARADARADARADA [RADA16 2.5%]", "values": [
      {"measurement": "gel formation (visualization)", "setting": "on absorbable gelatin sponge (Surgifoam, Ethicon)", "result": "gelled"},
      {"measurement": "gel formation (visualization)", "setting": "on absorbable oxidized regenerated cellulose woven dressing (Surgicel, Ethicon)", "result": "gelled"}
    ]}
  ]
}
